{
  "source": "paper PMC5352116",
  "binders": {"B1": {"name": "CASPASE 8, Q14790 1-479 (enzyme)", "chain": "MDFSRNLYDIGEQLDSEDLASLKFLSLDYIPQRKQEPIKDALMLFQRLQEKRMLEESNLSFLKELLFRINRLDLLITYLNTRKEEMERELQTPGRAQISAYRVMLYQISEEVSRSELRSFKFLLQEEISKCKLDDDMNLLDIFIEMEKRVILGEGKLDILKRVCAQINKSLLKIINDYEEFSKERSSSLEGSPDEFSNGEELCGVMTISDSPREQDSESQTLDKVYQMKSKPRGYCLIINNHNFAKAREKVPKLHSIRDRNGTHLDAGALTTTFEELHFEIKPHDDCTVEQIYEILKIYQLMDHSNMDCFICCILSHGDKGIIYGTDGQEAPIYELTSQFTGLKCPSLAGKPKVFFIQACQGDNYQKGIPVETDSEEQPYLEMDLSSPQTRYIPDEADFLLGMATVNNCVSYRNPAEGTWYIQSLCQSLRERCPRGDDILTILTEVNYEVSNKDDKKNMGKQMPQPTFTLRKKLVFPSD"}},
  "biological_target": "Death Receptor 5 (DR5) (human (endogenous in MCF-10A-Tr)), O14763",
  "experiment": "co-IP; DISC analysis: MCF-10A-Tr cells untreated or treated with QC, TRAIL or TRAIL (10 ng/mL, 3 h) then QC (2.5 uM, 48 h); RIPA lysate, pre-cleared with sepharose-4B beads, immunoprecipitated with anti-DR5 antibody at 4°C overnight; western blot",
  "settings": "remark: other sources report otherwise",
  "data": [
    {"binder": "B1", "values": [
      {"measurement": "fold level in the DISC (anti-DR5 immunoprecipitate), TRAIL+QC treated against untreated cells", "value": 7, "unit": "fold"}
    ]}
  ]
}
